Consider 16 molecules from patent US20230265151A1, “GIP/GLP1 CO-AGONIST COMPOUNDS” (priority 2020, published 2023).

Experiment in all cases: cell-based or functional assay
One experiment addresses human glucagon receptor (human, UniProt P47871 26-477).
The target of experiment [1] is T1, human glucose-dependent insulinotropic polypeptide (GIP) receptor (human, UniProt P48546 22-466).
T1 sequence (looked up): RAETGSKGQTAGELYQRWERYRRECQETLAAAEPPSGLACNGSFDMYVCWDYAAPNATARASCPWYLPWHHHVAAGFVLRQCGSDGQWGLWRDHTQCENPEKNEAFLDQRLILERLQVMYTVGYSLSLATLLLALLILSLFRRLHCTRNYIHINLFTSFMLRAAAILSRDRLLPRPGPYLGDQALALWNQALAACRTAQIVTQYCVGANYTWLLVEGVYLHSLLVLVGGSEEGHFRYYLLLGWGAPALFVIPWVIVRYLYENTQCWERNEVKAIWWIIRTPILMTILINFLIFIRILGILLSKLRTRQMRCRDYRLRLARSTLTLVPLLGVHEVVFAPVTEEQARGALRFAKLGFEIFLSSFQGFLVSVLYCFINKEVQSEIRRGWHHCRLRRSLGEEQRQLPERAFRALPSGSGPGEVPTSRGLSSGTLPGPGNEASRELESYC

Experiment [2] concerns the target human glucagon-like peptide-1 (GLP-1) receptor (human, UniProt P43220 24-463).

Residue numbers refer to the chain shown, from its start. *1 amine or outer side, *2 acyl side, *3 side chain or, on linkers, in order; H or OH if unused. Where no end group is shown, it is not given here. Side-chain parts run from the residue outwards. [ ]: non-standard residue; d: D form. The star is where a group is joined. αMePhe(2-F) = C[C@](N)(Cc1ccccc1F)C(=O)O; γGlu = O=C(O)[C@H](CCC(=O)[*:2])N[*:1]; C14 diacid = O=C(O)CCCCCCCCCCCCC(=O)*; εLys = N[C@@H](CCCCN[*:1])C(=O)[*:2]; αMeY = C[C@](N)(Cc1ccc(O)cc1)C(=O)O; αMeL = CC(C)C[C@](C)(N)C(=O)O; Orn = NCCC[C@H](N)C(=O)O; AEEA = NCCOCCOCC(=O)O; Aib = CC(C)(N)C(=O)O

B1: Example 273 (peptide)
peptide: YXEGTXTSDXSIXLDXKAQXEFIXXLIEGGPSSGAPPPSK
modifications: Aib2, αMeF(2F)6, 4Pal10, αMeL13, Orn16, K17(Z), Aib20, D-Glu24, αMeY25, K40(Z), C-terminal NH2; Z = AEEA2-(γ-Glu)-(10-(4-carboxyphenoxy)decanoyl)
As for B1, the “cAMP EC50” value in the experiment with human glucagon receptor is greater than 9950 nM; in experiment [1], 0.0166 nM; in experiment [2], 2.08 nM.

B2: Example 285 (peptide)
peptide: B1 peptide
modifications: Aib2, αMeF(2F)6, 4Pal10, αMeL13, Orn16, K17(Z), Aib20, D-Glu24, αMeY25, K40(Z), C-terminal NH2; Z = AEEA2-(γ-Glu)-(11-(4-carboxyphenoxy)undecanoyl)
B2: the entries for the “cAMP EC50” value (in the experiment with human glucagon receptor; in experiment [1]; in experiment [2]) were greater than 9950 nM, 0.0115 nM and 1.21 nM, respectively.

B3: Example 276 (peptide)
peptide: B1 peptide with K17I, E21K
modifications: Aib2, αMeF(2F)6, 4Pal10, αMeL13, Orn16, Aib20, K21(Z), D-Glu24, αMeY25, K40(Z), C-terminal NH2; Z = AEEA2-(γ-Glu)-(10-(4-carboxyphenoxy)decanoyl)
As for B3, the “cAMP EC50” value with human glucagon receptor was greater than 9950 nM; in experiment [1], 0.0134 nM; in experiment [2] it was 0.49 nM.

B4: Example 288 (peptide)
peptide: B1 peptide with K17I, E21K
modifications: Aib2, αMeF(2F)6, 4Pal10, αMeL13, Orn16, Aib20, K21(Z), D-Glu24, αMeY25, K40(Z), C-terminal NH2; Z = AEEA2-(γ-Glu)-(11-(4-carboxyphenoxy)undecanoyl)
For the molecule B4, the “cAMP EC50” value was greater than 9950 nM in the experiment with human glucagon receptor, 0.0219 nM in experiment [1] and 0.354 nM in experiment [2].

B5: Example 157 (peptide)
peptide: YXEGTXTSDXSIXLDXKAQXXFIXXLIEGGKSSGAPPPS
modifications: Aib2, αMeF(2F)6, 4Pal10, αMeL13, Orn16, K17(Z), Aib20, 4Pal21, D-Glu24, αMeY25, K31(Z), C-terminal NH2; Z = AEEA2-(γ-Glu)-CO-(CH2)12-CO2H
As to B5, the “cAMP EC50” value with human glucagon receptor was greater than 9950 nM; in experiment [1] it was 0.0286 nM; in experiment [2] it was 0.94 nM. In experiment [1], the “cAMP Emax” value worked out at 98.8%.

As for Y[Aib]EGT[αMePhe(2-F)]TSDV[Aib]I[αMeL]LD[Orn]K([εLys-γGlu-C14 diacid])AQ[Aib]EFIK([εLys-γGlu-C14 diacid])[αMeY]LIEGGPSSGAPPPS-NH2 [Example 167], the “cAMP EC50” value in the experiment with human glucagon receptor is greater than 9950 nM; in experiment [1], 0.0534 nM; in experiment [2] it was 0.217 nM. The figures for the “cAMP Emax” value in experiment [1] and in experiment [2] were 99.5% and 91.4%, respectively.

On to Y[Aib]EGT[αMePhe(2-F)]TSDV[Aib]I[αMeL]LD[Orn]K([AEEA-AEEA-εLys-C14 diacid])AQ[Aib]EFIK([AEEA-AEEA-εLys-C14 diacid])[αMeY]LIEGGPSSGAPPPS-NH2 [Example 166], for which the “cAMP EC50” value is greater than 9950 nM with human glucagon receptor, 0.0774 nM in experiment [1] and 0.192 nM in experiment [2]. Besides, the “cAMP Emax” value in experiment [1] turned out to be 97%; in experiment [2] it was 90.3%.

B6: Example 274 (peptide)
peptide: YXEGTXTSDXSIXLDXIAQXEFIKXLIKGGPSSGAPPPS
modifications: Aib2, αMeF(2F)6, 4Pal10, αMeL13, Orn16, Aib20, K24(Z), αMeY25, K28(Z), C-terminal NH2; Z = AEEA2-(γ-Glu)-(10-(4-carboxyphenoxy)decanoyl)
Turning to B6, the “cAMP EC50” value is greater than 9950 nM with human glucagon receptor, 0.0226 nM in experiment [1] and 0.406 nM in experiment [2].

B7: Example 160 (peptide)
peptide: B6 peptide with I17K, K28E
modifications: Aib2, αMeF(2F)6, 4Pal10, αMeL13, Orn16, K17(Z), Aib20, K24(Z), αMeY25, C-terminal NH2; Z = AEEA2-(εK)-CO-(CH2)12-CO2H
For the molecule B7, the entries for the “cAMP EC50” value (with human glucagon receptor; in experiment [1]; in experiment [2]) were greater than 9950 nM, 0.0197 nM and 0.228 nM, respectively.

B8: Example 286 (peptide)
peptide: B6 peptide
modifications: Aib2, αMeF(2F)6, 4Pal10, αMeL13, Orn16, Aib20, K24(Z), αMeY25, K28(Z), C-terminal NH2; Z = AEEA2-(γ-Glu)-(11-(4-carboxyphenoxy)undecanoyl)
In the case of B8, the “cAMP EC50” value was greater than 9950 nM with human glucagon receptor, 0.0344 nM in experiment [1] and 0.678 nM in experiment [2].

B9: Example 284 (peptide)
peptide: B6 peptide with E21K, K24X
modifications: Aib2, αMeF(2F)6, 2Nal10, αMeL13, Orn16, Aib20, K21(Z), D-Glu24, αMeY25, K28(Z), C-terminal NH2; Z = AEEA2-(γ-Glu)-(10-(4-carboxyphenoxy)decanoyl)
On to B9, for which the entries for the “cAMP EC50” value (with human glucagon receptor; in experiment [1]; in experiment [2]) were greater than 9950 nM, 0.0389 nM and 0.505 nM, respectively.

B10: Example 290 (peptide)
peptide: B6 peptide with I17K, K24X
modifications: Aib2, αMeF(2F)6, OMeY10, αMeL13, Orn16, K17(Z), Aib20, D-Glu24, αMeY25, K28(Z), C-terminal NH2; Z = AEEA2-(γ-Glu)-CO-(CH2)10-CH3
For B10, the “cAMP EC50” value was greater than 9950 nM with human glucagon receptor, 0.0188 nM in experiment [1] and 0.324 nM in experiment [2].

B11: Example 287 (peptide)
peptide: B6 peptide with E21K, K24X
modifications: Aib2, αMeF(2F)6, 4Pal10, αMeL13, Orn16, Aib20, K21(Z), D-Glu24, αMeY25, K28(Z), C-terminal NH2; Z = AEEA2-(γ-Glu)-(11-(4-carboxyphenoxy)undecanoyl)
For the molecule B11, the “cAMP EC50” value with human glucagon receptor was greater than 9950 nM; in experiment [1] it was 0.0189 nM; in experiment [2], 0.563 nM.

B12: Example 170 (peptide)
peptide: B5 peptide with X21E
modifications: Aib2, αMeF(2F)6, 4Pal10, αMeL13, Orn16, K17(Z), Ac5c20, D-Glu24, αMeY25, K31(Z), C-terminal NH2; Z = AEEA2-(γ-Glu)-CO-(CH2)12-CO2H
With B12, the “cAMP EC50” value with human glucagon receptor was greater than 9950 nM; in experiment [1], 0.0244 nM; in experiment [2], 1.03 nM.

B13: Example 282 (peptide)
peptide: B6 peptide with I17K, K24X
modifications: Aib2, αMeF(2F)6, 2Nal10, αMeL13, Orn16, K17(Z), Aib20, D-Glu24, αMeY25, K28(Z), C-terminal NH2; Z = AEEA2-(γ-Glu)-(10-(4-carboxyphenoxy)decanoyl)
On to B13, for which the “cAMP EC50” value with human glucagon receptor is greater than 9950 nM; in experiment [1], 0.0193 nM; in experiment [2] it was 0.216 nM.

B14: Example 169 (peptide)
peptide: B5 peptide with X21E
modifications: Aib2, αMeF(2F)6, 4Pal10, αMeL13, Orn16, K17(Z), aMeF20, D-Glu24, αMeY25, K31(Z), C-terminal NH2; Z = AEEA2-(γ-Glu)-CO-(CH2)12-CO2H
With B14, the “cAMP EC50” value is greater than 9950 nM with human glucagon receptor, 0.0381 nM in experiment [1] and 1.23 nM in experiment [2].
